Data published in the supplement of paper PMC9112550, “Optimization of the antimicrobial peptide Bac7 by deep mutational scanning” (BMC Biology, 2022).

System: Escherichia coli TOP10
Test: shrunken log2 fold change of peptide-encoding DNA abundance (4.5 h post-induction vs induction); higher = less antimicrobial activity (less host growth inhibition)
Settings: time post-induction: 4.5 h; library: site-saturation at positions 5, 18, 19, 20
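Also: peptides expressed intracellularly from a pBAD plasmid library in pooled LB shake-flask culture, induced with 0.3% L-arabinose, DNA abundance read by NGS, three biological replicates, DESeq2 with apeglm shrinkage.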

Row | Sequence | shrunken log2 fold change
1 | RRIRGRPPRLPRPRPRPYSFPRP | 0.0271
2 | RRIRFRPPRLPRPRPRPLAYPRP | -0.534
3 | RRIRIRPPRLPRPRPRPYATPRP | -0.334
4 | RRIRMRPPRLPRPRPRPGMCPRP | 0.19
5 | RRIRSRPPRLPRPRPRPDDNPRP | 0.00575
6 | RRIRQRPPRLPRPRPRPYLKPRP | 0.00123
7 | RRIRIRPPRLPRPRPRPEQMPRP | 0.224
8 | RRIRPRPPRLPRPRPRPSRIPRP | -0.0841
9 | RRIRERPPRLPRPRPRPAGRPRP | 0.0837
10 | RRIRHRPPRLPRPRPRPVPSPRP | 0.0513
11 | RRIRLRPPRLPRPRPRPSSWPRP | -0.0958
12 | RRIRARPPRLPRPRPRPHLMPRP | 0.0747
13 | RRIRHRPPRLPRPRPRPHYAPRP | -0.992
14 | RRIRARPPRLPRPRPRPCVEPRP | 0.317
15 | RRIRQRPPRLPRPRPRPNCPPRP | 0.0556
16 | RRIRVRPPRLPRPRPRPTEIPRP | 0.221
17 | RRIRTRPPRLPRPRPRPKVDPRP | 0.195
18 | RRIRGRPPRLPRPRPRPQIQPRP | 0.0796
19 | RRIRHRPPRLPRPRPRPKLYPRP | 0.0366
20 | RRIRPRPPRLPRPRPRPCKAPRP | -0.00218
21 | RRIRIRPPRLPRPRPRPLPRPRP | 0.2
22 | RRIRSRPPRLPRPRPRPCYRPRP | 0.0109
23 | RRIRHRPPRLPRPRPRPGDVPRP | -0.16
24 | RRIRYRPPRLPRPRPRPPAKPRP | 0.441
25 | RRIRPRPPRLPRPRPRPQRDPRP | 0.116
26 | RRIRARPPRLPRPRPRPHMRPRP | 0.669
27 | RRIRGRPPRLPRPRPRPTHFPRP | 0.71
28 | RRIRPRPPRLPRPRPRPSKPPRP | 0.0728

Row | Sequence | shrunken log2 fold change
29 | RRIRMRPPRLPRPRPRPFCAPRP | 0.358
30 | RRIRHRPPRLPRPRPRPIISPRP | -0.247
31 | RRIRWRPPRLPRPRPRPIVNPRP | -0.0307
32 | RRIRSRPPRLPRPRPRPTEEPRP | 0.234
33 | RRIRIRPPRLPRPRPRPIKRPRP | -0.0331
34 | RRIRSRPPRLPRPRPRPCPGPRP | -0.234
35 | RRIRERPPRLPRPRPRPVWTPRP | -0.00115
36 | RRIRIRPPRLPRPRPRPWAPPRP | -0.19
37 | RRIRARPPRLPRPRPRPVQQPRP | 0.954
38 | RRIRVRPPRLPRPRPRPKLKPRP | 0.00388
39 | RRIRYRPPRLPRPRPRPHCCPRP | -0.0599
40 | RRIRCRPPRLPRPRPRPVGCPRP | 0.204
41 | RRIRYRPPRLPRPRPRPLSNPRP | -0.233
42 | RRIRQRPPRLPRPRPRPRAHPRP | 0.638
43 | RRIRWRPPRLPRPRPRPKMWPRP | 0.737
44 | RRIRVRPPRLPRPRPRPEGEPRP | 0.171
45 | RRIRTRPPRLPRPRPRPDWGPRP | 0.194
46 | RRIRGRPPRLPRPRPRPSFPPRP | -0.0674
47 | RRIRYRPPRLPRPRPRPSESPRP | -0.0299
48 | RRIRCRPPRLPRPRPRPWSGPRP | -0.0937
49 | RRIRLRPPRLPRPRPRPMHSPRP | -0.13
50 | RRIRPRPPRLPRPRPRPNIQPRP | -0.404
51 | RRIRKRPPRLPRPRPRPLAWPRP | 0.928
52 | RRIRFRPPRLPRPRPRPHLWPRP | 0.185
53 | RRIRGRPPRLPRPRPRPVWMPRP | -0.117
54 | RRIRSRPPRLPRPRPRPNKKPRP | -0.194
55 | RRIRKRPPRLPRPRPRPQVVPRP | -0.0176
